Positions count from the first letter of the chain named.
What was measured:
human IL-17A [1] = target: T1, human IL-17A (human, UniProt Q16552 24-155); experiment: ELISA, coated IL-17A
T1 construct: secreted form (GenBank U32659) expressed in Hek293 with C-terminal 6-His; also called hIL-17A; IL-17A-6HIS
T1 sequence (Q16552 other isoform, or with tags, fused parts or gaps): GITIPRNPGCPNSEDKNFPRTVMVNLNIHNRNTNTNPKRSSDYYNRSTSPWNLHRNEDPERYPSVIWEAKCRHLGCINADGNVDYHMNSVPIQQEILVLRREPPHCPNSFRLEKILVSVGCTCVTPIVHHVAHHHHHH
Description: (§1) Binding of a selected panel of anti-IL-17 Nanobodies to IL-17 of other species was assessed using a binding ELISA. […] HRP (horseradish peroxidase) conjugated anti-myc (Serotec, MCA 2200P) was used for detection using esTMB as substrate.

marmoset IL-17A = target: T2, marmoset IL-17A (marmoset, IL-17A is a disulfide-linked homodimer. One chain is given.); experiment: ELISA, coated IL-17A
T2 chain: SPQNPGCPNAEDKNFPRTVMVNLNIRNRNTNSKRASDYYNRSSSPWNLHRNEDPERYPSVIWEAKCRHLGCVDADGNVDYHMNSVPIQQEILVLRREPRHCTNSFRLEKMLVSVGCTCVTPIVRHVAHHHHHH
Description: as §1

mouse IL-17A = target: T3, mouse IL-17A (mouse, UniProt Q62386 26-158); experiment: ELISA, coated IL-17A
T3 sequence (looked up): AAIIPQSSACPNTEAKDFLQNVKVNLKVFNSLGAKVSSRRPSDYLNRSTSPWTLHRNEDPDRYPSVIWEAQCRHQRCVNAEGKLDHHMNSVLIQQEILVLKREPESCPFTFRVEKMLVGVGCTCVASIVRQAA
Description: as §1

rat IL-17A = target: T4, rat IL-17A (rat, UniProt Q61453 18-150, limits assumed); experiment: ELISA, coated IL-17A
T4 sequence (looked up): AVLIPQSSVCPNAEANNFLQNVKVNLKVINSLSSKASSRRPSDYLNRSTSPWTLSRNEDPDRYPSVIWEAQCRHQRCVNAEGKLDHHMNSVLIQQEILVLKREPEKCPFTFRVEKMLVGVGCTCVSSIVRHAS
Description: as §1

guinea pig IL-17A = guinea pig IL-17A (guinea pig); experiment: ELISA, coated IL-17A
Description: as §1

human IL-17F [2] = target: T5, human IL-17F (human, UniProt Q96PD4 31-163); experiment: ELISA, coated IL-17F;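 note: binding ELISA on coated antigen from various species, with bound Nanobodies revealed by an HRP-linked anti-myc antibody and esTMB substrate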
T5 construct: GenBank AF384857, expressed in Hek293 as 6-His C-terminal tagged protein; also called hIL-17F; IL-17F-6HIS
T5 sequence: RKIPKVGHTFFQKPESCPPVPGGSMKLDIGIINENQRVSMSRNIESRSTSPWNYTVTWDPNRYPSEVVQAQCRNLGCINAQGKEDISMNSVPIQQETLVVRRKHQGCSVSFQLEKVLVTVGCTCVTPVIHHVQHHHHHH
Description: as §1

mouse IL-17F = target: T6, mouse IL-17F (mouse, UniProt Q7TNI7 29-161); experiment: ELISA, coated IL-17F;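 note: binding ELISA on coated antigen from various species, with bound Nanobodies revealed by an HRP-linked anti-myc antibody and esTMB substrate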
T6 sequence (looked up): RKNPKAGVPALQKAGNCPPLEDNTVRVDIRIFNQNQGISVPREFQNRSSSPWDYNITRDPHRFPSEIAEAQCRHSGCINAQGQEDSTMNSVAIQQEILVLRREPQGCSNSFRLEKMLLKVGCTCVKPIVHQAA
Description: as §1

rat IL-17F = target: T7, rat IL-17F (rat, UniProt Q5BJ95 29-161); experiment: ELISA, coated IL-17F;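 note: binding ELISA on coated antigen from various species, with bound Nanobodies revealed by an HRP-linked anti-myc antibody and esTMB substrate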
T7 sequence (looked up): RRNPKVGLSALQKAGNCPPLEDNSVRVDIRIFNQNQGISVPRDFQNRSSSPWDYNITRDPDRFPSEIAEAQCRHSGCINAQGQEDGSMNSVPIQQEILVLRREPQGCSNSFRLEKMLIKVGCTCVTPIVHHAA
Description: as §1

human IL-17A [3] = target: T1, human IL-17A; experiment: SPR, IL-17A-Nanobody complex over captured IL-17RA
Excerpt: (§2) The receptor (IL-17RA or IL-17RC) was captured via its human Fc-tail by an anti-human IgG-Fc antibody coated on the chip.

human IL-17F [4] = target: T5, human IL-17F; experiment: SPR, IL-17F-Nanobody complex over captured IL-17RC
Excerpt: as §2

human IL-17A [5] = target: T8, human IL-17A (human, UniProt Q16552 24-155); experiment: SPR (Biacore) off-rate
T8 construct: secreted form made in Hek293 cells (GenBank U32659); also called hIL-17A; hIL17A
T8 sequence (Q16552 other isoform, or with tags, fused parts or gaps): as the sequence (Q16552 other isoform, or with tags, fused parts or gaps) above

human IL-17F [6] = target: T9, human IL-17F (human, UniProt Q96PD4 31-163); experiment: SPR (Biacore) off-rate
T9 construct: made in Hek293 cells (GenBank AF384857); also called hIL-17F; hIL17F
T9 sequence: T5 sequence

[7] = target: T10, human IL-17A/F heterodimer (human, UniProt Q16552 24-155; Q96PD4 31-163, limits assumed); experiment: SPR (Biacore) off-rate
T10 construct: bought, made in E. coli (R&D Systems 5194-IL/CF); also called hIL-17A/F; hIL17A/F
T10 sequence (Q16552 24-155 limits assumed, chain 1 of 2, one chain of several): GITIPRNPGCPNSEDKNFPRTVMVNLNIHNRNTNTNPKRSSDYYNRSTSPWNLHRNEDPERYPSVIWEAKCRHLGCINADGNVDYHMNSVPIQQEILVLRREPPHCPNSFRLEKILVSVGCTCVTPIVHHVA

human IL-17A [8] = target: T8, human IL-17A; experiment: AlphaScreen hIL-17A-IL-17RA; vs IL17MS13B03
human IL-17F [9] = target: T9, human IL-17F; experiment: AlphaScreen hIL-17F-IL-17RC; vs IL17MS13B03
human IL-17A [10] = target: T11, human IL-17A (human, UniProt Q16552 24-155, biotinylated with Sulfo-NHS-LC-Biotin in the AlphaScreen assays only); experiment: cell-based or functional assay
T11 sequence (Q16552 other isoform, or with tags, fused parts or gaps): as the sequence (Q16552 other isoform, or with tags, fused parts or gaps) above

[11] = target: T12, human IL-17A/F heterodimer (human, UniProt Q16552 24-155; Q96PD4 31-163, limits assumed, biotinylated with Sulfo-NHS-LC-Biotin in the AlphaScreen assays only); experiment: cell-based or functional assay
human IL-17A [12] = target: T11, human IL-17A; experiment: AlphaScreen competition, hIL-17A - IL-17RA-Fc;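 note: receptor Fc-fusion plus Acceptor and streptavidin Donor beads incubated with the mixture for 1 h at room temperature before reading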
Description: (§3) To this mixture, the IL-17RA or IL-17RC Fc-fusions, Acceptor beads and the streptavidin Donor beads were added and further incubated for 1 hour at RT.

human IL-17A [13] = target: T11, human IL-17A; experiment: AlphaScreen competition, hIL-17A - IL-17RC-Fc;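 note: Read-out after 1 h at room temperature with the receptor Fc-fusion, Acceptor beads and streptavidin-coated Donor beads present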
Description: as §3

human IL-17F [14] = target: T13, human IL-17F (human, UniProt Q96PD4 31-163, biotinylated with Sulfo-NHS-LC-Biotin in the AlphaScreen assays only); experiment: AlphaScreen competition, hIL-17F - IL-17RC-Fc
T13 construct: also called hIL-17F; recombinant human IL-17F
T13 sequence: T5 sequence
Description: as §3

[15] = target: T12, human IL-17A/F heterodimer; experiment: AlphaScreen competition, hIL-17A/F - IL-17RA-Fc
Target sequence in this assay (Q16552 24-155 limits assumed, chain 1 of 2, one chain of several): as the sequence (Q16552 24-155 limits assumed, chain 1 of 2, one chain of several) above
Description: as §3

[16] = target: T12, human IL-17A/F heterodimer; experiment: AlphaScreen competition, hIL-17A/F - IL-17RC-Fc
Target sequence in this assay (Q16552 24-155 limits assumed, chain 1 of 2, one chain of several): as above
Description: as §3

human IL-17A [17] = target: T11, human IL-17A; experiment: SPR Biacore, hIL-17A on chip; periplasmic extract (*)
Description: (§4) Off-rates of the periplasmic extracts containing anti-IL-17 Nanobodies were measured by Surface Plasmon Resonance (SPR) using a Biacore T100 instrument. […] Periplasmic extracts containing IL-17 neutralizing Nanobodies were injected for 2 minutes at a flow rate of 45 μl/min to allow binding to chip-bound antigen. Next, binding buffer without periplasmic extracts was sent over the chip at the same flow rate to allow spontaneous dissociation of bound Nanobody. From the sensorgrams obtained for the different periplasmic extracts koff-values (k₄) were calculated.

[18] = target: T12, human IL-17A/F heterodimer; experiment: SPR Biacore, hIL-17A/F on chip; periplasmic extract (*)
Target sequence in this assay (Q16552 24-155 limits assumed, one chain of several): as the sequence (Q16552 24-155 limits assumed, chain 1 of 2, one chain of several) above
Description: as §4

human IL-17F [19] = target: T13, human IL-17F; experiment: SPR Biacore, hIL-17F on chip; periplasmic extract (*); NB = no binding
Description: as §4

human IL-17A [20] = target: T1, human IL-17A; experiment: cell-based or functional assay
human IL-17F [21] = target: T5, human IL-17F; experiment: cell-based or functional assay
human IL-17A [22] = target: T1, human IL-17A; experiment: competition ELISA IL17A-RA
Description: (§5) To this end, IL-17RA, respectively IL-17RC was coated at a concentration of 1 μg/ml in PBS.

human IL-17F [23] = target: T5, human IL-17F; experiment: competition ELISA IL17F-RC
Description: as §5

B1: 17C01 (VHH)
VHH: EVQLVESGGRLVQAGGSLRLPCAASGRTFTSYPMGWFRQAPGKEREFVAAISMSGDDAAYADFVRGRFTISRDDARNTVYLHMTSLKPEDTAVYYCAARTSYDGTYDYIDDYSYWGQGTQVTVSS
notes: Class 4
OD (human IL-17A [1]): 1.83 OD
OD (marmoset IL-17A): 1.84 OD
OD (mouse IL-17A): -0.001 OD
OD (rat IL-17A): 0 OD
OD (guinea pig IL-17A): 0.007 OD
OD (human IL-17F [2]): 0.772 OD
OD (mouse IL-17F): -0.0005 OD
OD (rat IL-17F): 0.0025 OD
% Biacore binding (IL-17A-NB)-IL-17RA (human IL-17A [3]): -2.01%
% Biacore binding (IL-17F-NB)-IL-17RC (human IL-17F [4]): 32.5%

B2: IL17MS3047 (VHH)
VHH: EVQLVESGGGLVQPGGSLRLSCAASGRANSINWFGWFRQAPGKEREFVAGIRWSDAYTEYAASVKGRFTISRDNSKNTVYLQMNSLRPEDTAVYYCVLDLSTVRYWGQGTLVTVSS
notes: variant of IL17MS13B03; Kabat numbering
koff (human IL-17A [5]): 0.000252 s⁻¹
koff (human IL-17F [6]): 0.00348 s⁻¹
koff [7]: 0.000538 s⁻¹
IC50 fold difference compared to WT (human IL-17A [8]): 1.1 fold
IC50 fold difference compared to WT (human IL-17F [9]): 0.7 fold

B3: IL17MS3052 (VHH)
VHH: EVQLVESGGGSVQAGDSLRLSCAASGRASSINWFGWFRQTPGKEREFVAGIRWSDAYTEYANSVKGRFTISRDNAKNTVDLQMDSLKPEDTAVYYCVLDLSTVRYWGQGTQVTVSS
notes: as for B2
koff (human IL-17A [5]): 0.000289 s⁻¹
koff (human IL-17F [6]): 0.00439 s⁻¹
koff [7]: 0.000518 s⁻¹
IC50 fold difference compared to WT (human IL-17A [8]): 0.9 fold
IC50 fold difference compared to WT (human IL-17F [9]): 0.5 fold

B4: IL17MS3053 (VHH)
VHH: B3 VHH with S29N, S30T
notes: as for B2
koff (human IL-17A [5]): 0.000258 s⁻¹
koff (human IL-17F [6]): 0.00982 s⁻¹
koff [7]: 0.00052 s⁻¹
IC50 fold difference compared to WT (human IL-17A [8]): 1.3 fold
IC50 fold difference compared to WT (human IL-17F [9]): 1.2 fold

B5: IL17MS3051 (VHH)
VHH: B3 VHH with S29F
notes: as for B2
koff (human IL-17A [5]): 0.000205 s⁻¹
koff (human IL-17F [6]): 0.00216 s⁻¹
koff [7]: 0.000396 s⁻¹
IC50 fold difference compared to WT (human IL-17A [8]): 1.4 fold
IC50 fold difference compared to WT (human IL-17F [9]): 0.4 fold

B6: 09D10 (VHH)
VHH: EVQLVESGGGLVQAGGSLSLSCAASGSVFRIDVMRWHRQAPGKQREFLASIASGGTTNYADSVKGRFTISRDNAKNTVYLQMNSLKPEDTAVYYCGANAESGPYTYWGLGTQVTVSS
notes: Class 2 Nanobody (anti-IL-17A and IL-17A/F); not shown: c-myc, His6 tag
IL-17A-induced IL-6 production in HT-1080 cells, Emax (human IL-17A [10]): 93.5%
IL-17A-induced IL-6 production in HT-1080 cells, IC50 (human IL-17A [10]): 8.5 nM
IL-17A/F-induced IL-6 production in HT-1080 cells, Emax [11]: 55%
IL-17A/F-induced IL-6 production in HT-1080 cells, IC50 [11]: 124 nM
IC50 (human IL-17A [12]): 0.211 nM
IC50 (human IL-17A [13]): 1.12 nM
IC50 (human IL-17F [14]): 69.4 nM
IC50 [15]: 9.02 nM
IC50 [16]: 8.65 nM
koff (human IL-17A [17]): 0.00015 s⁻¹
koff [18]: 0.0017 s⁻¹

B7: 01D06 (VHH)
VHH: EVQLVESGGGLVQAGGSLRLSCAADGRTFSTYGMTWFRQVPGKEREFVAHIPRSTYSPYYANSVKGRFTIARDDAKSTVYLQMNSLKPEDTAVYYCAVFTGGTYYVPTAYDYWGQGTQVTVSS
notes: as for B6
IL-17A-induced IL-6 production in HT-1080 cells, Emax (human IL-17A [10]): 98.3%
IL-17A-induced IL-6 production in HT-1080 cells, IC50 (human IL-17A [10]): 42.8 nM
IL-17A/F-induced IL-6 production in HT-1080 cells, Emax [11]: 79.5%
IL-17A/F-induced IL-6 production in HT-1080 cells, IC50 [11]: 51.1 nM
IC50 (human IL-17A [12]): 0.618 nM
IC50 (human IL-17A [13]): 1.52 nM
IC50 [15]: 0.401 nM
IC50 [16]: 0.198 nM
koff (human IL-17A [17]): 0.00097 s⁻¹
koff [18]: 0.0013 s⁻¹
binding result (human IL-17F [19]): no binding

B8: 04A02 (VHH)
VHH: EVQLVESGGGLVQPGGSLRLSCAASRNINIINYMAWYRQAPGNQRELVAAMTSDATTEYADSVKGRFTISRDIPENTVYLQMNSLKPEDTAVYYCNAKGIWDYLGRRDFGDYWGQGTQVTVSS
notes: as for B6
IL-17A-induced IL-6 production in HT-1080 cells, Emax (human IL-17A [10]): 102%
IL-17A-induced IL-6 production in HT-1080 cells, IC50 (human IL-17A [10]): 12.6 nM
IL-17A/F-induced IL-6 production in HT-1080 cells, Emax [11]: 67.6%
IL-17A/F-induced IL-6 production in HT-1080 cells, IC50 [11]: 70.4 nM
IC50 (human IL-17A [12]): 0.399 nM
IC50 (human IL-17A [13]): 0.837 nM
IC50 [15]: 1.96 nM
IC50 [16]: 3.17 nM
koff (human IL-17A [17]): 0.0013 s⁻¹
koff [18]: 0.011 s⁻¹
binding result (human IL-17F [19]): no binding

B9: SH-Fc-(GS)2-13E02 (Fc fusion, not shown: a dimerising Fc or GST; small tags and cut ends)
chain: EVQLVESGGGLVQAGGSLRLSCAASGRTYDAMGWLRQAPGKEREFVAAISGSGDDTYYADSVKGRFTISKDNAGITMYLQMNSLKPEDTAVYYCATRRGLYYVWDSNDYENWGQGTQVTVSS
notes: also called MSB0010619; SH-(GS)2-Fc-13E02
IC50, hIL-17A induced IL-6, HT-1080, without HSA (human IL-17A [20]): 0.31 nM
IC50, hIL-17F induced IL-6, HT-1080, without HSA (human IL-17F [21]): 4.9 nM
IC50 (human IL-17A [22]): 0.112 nM
IC50 (human IL-17F [23]): 0.267 nM

— patent US20210130452A1 (Merck KGaA, published 2021)
